Key:
[1] = biological target: mouse hexabrachion (mouse (endogenous in 3T3 cells)) (UniProt Q80YX1); test: rotary shadowing electron microscopy
[2] = biological target: rat hexabrachion (rat (endogenous in normal rat kidney cells)); test: rotary shadowing electron microscopy

Row | Substance | stoichiometry N [1] | stoichiometry N [2]
1 | mouse hexabrachion, Q80YX1 23-2110 | 6 | 
2 | rat hexabrachion |  | 6

Reference: publication PMC2114792
